Ends that are not written are not given here.
Experiments:
Format in all cases: cell-based
CXCR4 = molecular target: T1, CXCR4 (Homo sapiens, UniProt P61073); experiment: Receptor-HIT BRET, β-arr2/Venus with RAGE/Rluc8 and CXCR4; details: in the presence of CXCR4
T1 construct: expressed in transfected cells; host or cells: HEK293FT, transient
Source text: (§1) Bioluminescence Resonance Energy Transfer (BRET)
(§2) BRET is an established technology for studying protein-protein proximity in live cells, particularly involving GPCRs (Pfleger and Eidne, 2006). One protein of interest was linked to a bioluminescent donor enzyme, Rluc8, a variant of Renilla luciferase, and a second linked to an acceptor fluorophore, Venus, a variant of green fluorescent protein. If in close proximity (<10 nm), energy resulting from the rapid oxidation of a cell-permeable coelenterazine substrate by the donor can transfer to the acceptor, which in turn fluoresces at a longer characteristic wavelength.
(§3) Plasmids were transiently co-expressed in human embryonic kidney (HEK) 293FT cells and BRET measurements taken at 37° C. using a POLARstar Omega or LUMIstar plate reader (BMG Labtech, Mornington, Victoria, Australia) with 460-490 nm (‘donor emission’) and 520-550 nm (‘acceptor emission’) filters, or a VICTOR Light plate reader (Perkin Elmer, Glen Waverley, Victoria, Australia) with 400-475 nm (‘donor emission’) and 520-540 nm (‘acceptor emission’) filters, or a CLARIOstar plate reader (BMG Labtech, Mornington, Victoria, Australia) with 420-480 nm (‘donor emission’) and 520-620 nm (‘acceptor emission’) filters. […]
(§4) For BRET kinetic assays, the final pre-treatment reading is presented at the zero time point (time of ligand/vehicle addition). […]

AT1 = molecular target: T2, AT1 (Homo sapiens, UniProt P30556); experiment: BRET between mCherry/RAGE338-361 and luciferase-tagged AT1; set-up: expressed in transfected cells; host or cells: HEK293FT, transient
T2 sequence (P30556 1-359): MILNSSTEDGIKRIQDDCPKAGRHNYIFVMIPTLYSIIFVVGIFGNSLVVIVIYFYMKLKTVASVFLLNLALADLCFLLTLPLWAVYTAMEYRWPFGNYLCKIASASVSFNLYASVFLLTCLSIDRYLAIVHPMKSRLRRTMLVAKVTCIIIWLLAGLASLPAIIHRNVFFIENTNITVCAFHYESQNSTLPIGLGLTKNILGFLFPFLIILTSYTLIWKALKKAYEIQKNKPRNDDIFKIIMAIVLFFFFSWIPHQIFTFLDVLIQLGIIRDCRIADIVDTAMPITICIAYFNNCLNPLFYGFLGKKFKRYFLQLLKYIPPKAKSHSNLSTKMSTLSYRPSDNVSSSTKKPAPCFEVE
Experimental: FIG. 21A. BRET between mCherry/RAGE338-361 and Nluc/AT1 is increased with Ang II. Data are presented as mean±SEM; n=3-5.
FIG. 21D. Lack of Ang II-induced BRET signal between AT1/Rluc8 and mCherry/RAGE338-361 where cells were transfected with 50 ng AT1/Rluc8 cDNA, 300 ng RAGE/Venus cDNA and 0, 50, 100, 200, 300 or 400 ng of mCherry/RAGE338-361 CDNA or pcDNA3 control plasmid as indicated. Data are presented as mean±SEM; n=3-4. Filters: mCherry 650 nm/Rluc8 450 nm.
as §1
BRET is an established technology for studying protein-protein proximity in live cells, particularly involving GPCRs (Pfleger and Eidne, 2006). […]
as §3

[1] = system: Human microvascular endothelial cells (HMEC); experiment: Ang II-induced pro-inflammatory signalling (ICAM-1, MCP-1 RT-PCR) in HMEC; details: overexpression of construct
Experimental: Primary aortic endothelial cells (PMAEC) were isolated from the aortae of (wild-type) C57bl6 mice and AGER KO mice and cultured in Dulbecco's modified Eagle's medium (DMEM)/F12 endothelial cell growth supplement (ECGS) supplemented media. Chinese Hamster Ovary (CHO) cells were cultured using F12 media (10% FCS with 2 mM glutamine). Human microvascular endothelial cells (HMEC) were cultured in MCDB 131 medium (10% FCS with 10 mM glutamine, EGF and hydrocortisone).
Cellular Expression of Pro-Inflammatory Markers and Mediators by Quantitative Real-Time PCR
After 2 hours of exposure to Ang II (1 μM) or the RAGE ligand, S100A8/A9 (5 ng/ml) cells were placed in Trizol, mRNA extracted and cDNA synthesized. Changes in the gene expression of the NFκB subunit, p65 (RelA) or NFκB-activated target genes (e.g ICAM-1, VCAM-1) were estimated by quantitative real-time RT-PCR, performed using the TaqMan system based on real-time detection of accumulated fluorescence (ABI Prism 7700, Perkin-Elmer Inc, PE Biosystems, Foster City, CA, USA). Gene expression was normalized to 18S mRNA and reported as fold change compared to the level of expression in untreated control mice/cells, which were given an arbitrary value of 1.

CXCR6 = molecular target: T3, CXCR6 (Homo sapiens, UniProt O00574); experiment: Receptor-HIT BRET, β-arr2/Venus with RAGE/Rluc8 and CXCR6; details: in the presence of CXCR6
T3 construct: expressed in transfected cells; host or cells: HEK293FT, transient
T3 sequence (O00574 whole entry): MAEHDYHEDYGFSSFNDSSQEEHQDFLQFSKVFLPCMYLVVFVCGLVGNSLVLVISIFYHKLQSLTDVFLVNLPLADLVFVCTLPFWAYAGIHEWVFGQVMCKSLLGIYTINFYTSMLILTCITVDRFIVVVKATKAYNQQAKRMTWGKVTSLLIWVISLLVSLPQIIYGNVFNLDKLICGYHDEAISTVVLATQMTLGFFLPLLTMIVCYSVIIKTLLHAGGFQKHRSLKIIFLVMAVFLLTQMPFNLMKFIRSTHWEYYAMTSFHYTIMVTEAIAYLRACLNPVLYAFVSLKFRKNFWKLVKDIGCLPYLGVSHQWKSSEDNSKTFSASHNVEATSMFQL
T3 sequence (P32121 whole entry partner): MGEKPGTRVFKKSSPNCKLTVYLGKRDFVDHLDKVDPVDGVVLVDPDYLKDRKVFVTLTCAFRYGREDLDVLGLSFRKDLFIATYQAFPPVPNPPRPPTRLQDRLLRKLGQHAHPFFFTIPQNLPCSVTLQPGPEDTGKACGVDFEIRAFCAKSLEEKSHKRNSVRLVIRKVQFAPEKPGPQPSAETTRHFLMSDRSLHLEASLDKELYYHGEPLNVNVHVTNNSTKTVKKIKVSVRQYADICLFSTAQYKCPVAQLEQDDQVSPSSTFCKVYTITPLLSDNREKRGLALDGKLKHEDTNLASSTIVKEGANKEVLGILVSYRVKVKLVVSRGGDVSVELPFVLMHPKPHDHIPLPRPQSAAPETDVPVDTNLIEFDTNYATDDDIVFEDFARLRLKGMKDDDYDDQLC
Source text: as §1, §2, §3, §4

T1 sequence (P61073 whole entry): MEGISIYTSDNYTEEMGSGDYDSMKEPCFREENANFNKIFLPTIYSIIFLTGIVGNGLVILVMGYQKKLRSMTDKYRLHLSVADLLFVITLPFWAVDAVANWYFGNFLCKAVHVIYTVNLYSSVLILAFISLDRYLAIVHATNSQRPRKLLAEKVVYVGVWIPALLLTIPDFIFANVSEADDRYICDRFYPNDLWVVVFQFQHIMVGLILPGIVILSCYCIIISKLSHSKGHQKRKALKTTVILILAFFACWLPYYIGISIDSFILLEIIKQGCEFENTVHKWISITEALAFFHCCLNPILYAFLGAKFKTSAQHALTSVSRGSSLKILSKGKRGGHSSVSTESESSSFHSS
T1 sequence (P32121 whole entry partner): as the sequence (P32121 whole entry partner) above

For “CXCL 12: chemokine ligand used to activate CXCR4”, the “β-arr2/Venus proximity to RAGE/Rluc8” value (CXCR4) was “reduction”.

“mCherry/RAGE338-361: mCherry fusion of RAGE338-361 (LGTLALALGILGGLGTAALLIGVI; also: mCherry fusion)” was tested, and the “Ang II-induced BRET signal with AT1/Rluc8” value (AT1; cells also transfected with RAGE/Venus cDNA, filters mCherry 650 nm/Rluc8 450 nm) was “Lack of”, the “BRET with Nluc/AT1” value (AT1; with Ang II) was “increased” and the “inhibition of Ang II-induced ICAM-1 expression” value [1] was “inhibited”.

B1: CXCL16: chemokine ligand used to activate CXCR6 (protein)
chain: NEGSVTGSCYCGKRISSDSPPSVQFMNRLRKHLRAYHRCLYYTRFQLLSWSVCGGNKDPWVQELMSCLDLKECGHAYSGIVAHQKHLLP
With B1 the “recruitment of β-arr2/Venus proximal to RAGE/Rluc8” value (CXCR6) was “recruitment”.
